{"source": "patent US12616740B2", "about": "“Methods of using a GIP/GLP1 co-agonist for therapy” (ELI LILLY AND COMPANY, priority 2018, dated 2026)", "experiment": "NCT03311724: nausea, vomiting and diarrhea, new events per interval", "type": "in vivo, human", "description": "This is a 12-week treatment with a 1 week screening (Visit 1) followed by a 1 week lead-in (Visit 2), then 12 weeks of treatment (Visits 3-10, including telephone visits), then followed by 4-week safety follow-up. It is a Phase 2 study designed to examine the efficacy and tolerability of subcutaneously once-weekly tirzepatide compared with placebo in patients with type 2 diabetes who have inadequate glycemic control with diet and exercise alone or with a stable dose of metformin. The study was designed per below and conducted to refine the escalation scheme.", "data": [{"substance": "tirzepatide [LY]", "values": [{"measurement": "Nausea Vomiting and Diarrhea: m, number of patients who experienced new event during interval", "setting": "LY12 mg Group 3 (tirzepatide 4 mg × 4, 8 mg × 4, 12 mg × 4 once weekly), N = 29, T/Wk 8", "result": "m = 4;"}, {"measurement": "Nausea Vomiting and Diarrhea: m, number of patients who experienced new event during interval", "setting": "LY12 mg Group 3 (tirzepatide 4 mg × 4, 8 mg × 4, 12 mg × 4 once weekly), N = 29, T/Wk 9", "result": "m = 1;"}, {"measurement": "Nausea Vomiting and Diarrhea: m, number of patients who experienced new event during interval", "setting": "LY12 mg Group 3 (tirzepatide 4 mg × 4, 8 mg × 4, 12 mg × 4 once weekly), N = 29, T/Wk 10", "result": "m = 1;"}, {"measurement": "Nausea Vomiting and Diarrhea: m, number of patients who experienced new event during interval", "setting": "LY12 mg Group 3 (tirzepatide 4 mg × 4, 8 mg × 4, 12 mg × 4 once weekly), N = 29, T/Wk 11", "result": "m = 0;"}, {"measurement": "Nausea Vomiting and Diarrhea: m, number of patients who experienced new event during interval", "setting": "LY12 mg Group 3 (tirzepatide 4 mg × 4, 8 mg × 4, 12 mg × 4 once weekly), N = 29, T/Wk 12", "result": "m = 1;"}, {"measurement": "Nausea Vomiting and Diarrhea: m, number of patients who experienced new event during interval", "setting": "LY15 mg-Group 1 (tirzepatide 2.5 mg × 2, 5 mg × 2, 10 mg × 4, 15 mg × 4 once weekly), N = 28, Follow-up", "result": "m = 0;"}, {"measurement": "Nausea Vomiting and Diarrhea: m, number of patients who experienced new event during interval", "setting": "LY15 mg-Group 1 (tirzepatide 2.5 mg × 2, 5 mg × 2, 10 mg × 4, 15 mg × 4 once weekly), N = 28, Overall", "result": "m = 16;"}, {"measurement": "Nausea Vomiting and Diarrhea: m, number of patients who experienced new event during interval", "setting": "LY15 mg-Group 1 (tirzepatide 2.5 mg × 2, 5 mg × 2, 10 mg × 4, 15 mg × 4 once weekly), N = 28, T/Wk 0", "result": "m = 6;"}, {"measurement": "Nausea Vomiting and Diarrhea: m, number of patients who experienced new event during interval", "setting": "LY15 mg-Group 1 (tirzepatide 2.5 mg × 2, 5 mg × 2, 10 mg × 4, 15 mg × 4 once weekly), N = 28, T/Wk 1", "result": "m = 3;"}, {"measurement": "Nausea Vomiting and Diarrhea: m, number of patients who experienced new event during interval", "setting": "LY15 mg-Group 1 (tirzepatide 2.5 mg × 2, 5 mg × 2, 10 mg × 4, 15 mg × 4 once weekly), N = 28, T/Wk 2", "result": "m = 2;"}, {"measurement": "Nausea Vomiting and Diarrhea: m, number of patients who experienced new event during interval", "setting": "LY15 mg-Group 1 (tirzepatide 2.5 mg × 2, 5 mg × 2, 10 mg × 4, 15 mg × 4 once weekly), N = 28, T/Wk 3", "result": "m = 1;"}, {"measurement": "Nausea Vomiting and Diarrhea: m, number of patients who experienced new event during interval", "setting": "LY15 mg-Group 1 (tirzepatide 2.5 mg × 2, 5 mg × 2, 10 mg × 4, 15 mg × 4 once weekly), N = 28, T/Wk 4", "result": "m = 5;"}, {"measurement": "Nausea Vomiting and Diarrhea: m, number of patients who experienced new event during interval", "setting": "LY15 mg-Group 1 (tirzepatide 2.5 mg × 2, 5 mg × 2, 10 mg × 4, 15 mg × 4 once weekly), N = 28, T/Wk 5", "result": "m = 6;"}, {"measurement": "Nausea Vomiting and Diarrhea: m, number of patients who experienced new event during interval", "setting": "LY15 mg-Group 1 (tirzepatide 2.5 mg × 2, 5 mg × 2, 10 mg × 4, 15 mg × 4 once weekly), N = 28, T/Wk 6", "result": "m = 2;"}, {"measurement": "Nausea Vomiting and Diarrhea: m, number of patients who experienced new event during interval", "setting": "LY15 mg-Group 1 (tirzepatide 2.5 mg × 2, 5 mg × 2, 10 mg × 4, 15 mg × 4 once weekly), N = 28, T/Wk 7", "result": "m = 0;"}, {"measurement": "Nausea Vomiting and Diarrhea: m, number of patients who experienced new event during interval", "setting": "LY15 mg-Group 1 (tirzepatide 2.5 mg × 2, 5 mg × 2, 10 mg × 4, 15 mg × 4 once weekly), N = 28, T/Wk 8", "result": "m = 4;"}, {"measurement": "Nausea Vomiting and Diarrhea: m, number of patients who experienced new event during interval", "setting": "LY15 mg-Group 1 (tirzepatide 2.5 mg × 2, 5 mg × 2, 10 mg × 4, 15 mg × 4 once weekly), N = 28, T/Wk 9", "result": "m = 0;"}, {"measurement": "Nausea Vomiting and Diarrhea: m, number of patients who experienced new event during interval", "setting": "LY15 mg-Group 1 (tirzepatide 2.5 mg × 2, 5 mg × 2, 10 mg × 4, 15 mg × 4 once weekly), N = 28, T/Wk 10", "result": "m = 3;"}, {"measurement": "Nausea Vomiting and Diarrhea: m, number of patients who experienced new event during interval", "setting": "LY15 mg-Group 1 (tirzepatide 2.5 mg × 2, 5 mg × 2, 10 mg × 4, 15 mg × 4 once weekly), N = 28, T/Wk 11", "result": "m = 2;"}, {"measurement": "Nausea Vomiting and Diarrhea: m, number of patients who experienced new event during interval", "setting": "LY15 mg-Group 1 (tirzepatide 2.5 mg × 2, 5 mg × 2, 10 mg × 4, 15 mg × 4 once weekly), N = 28, T/Wk 12", "result": "m = 0;"}, {"measurement": "Nausea Vomiting and Diarrhea: m, number of patients who experienced new event during interval", "setting": "LY15 mg-Group 2 (tirzepatide 2.5 mg × 4, 7.5 mg × 4, 15 mg × 4 once weekly), N = 28, Follow-up", "result": "m = 0;"}, {"measurement": "Nausea Vomiting and Diarrhea: m, number of patients who experienced new event during interval", "setting": "LY15 mg-Group 2 (tirzepatide 2.5 mg × 4, 7.5 mg × 4, 15 mg × 4 once weekly), N = 28, Overall", "result": "m = 13;"}, {"measurement": "Nausea Vomiting and Diarrhea: m, number of patients who experienced new event during interval", "setting": "LY15 mg-Group 2 (tirzepatide 2.5 mg × 4, 7.5 mg × 4, 15 mg × 4 once weekly), N = 28, T/Wk 0", "result": "m = 4;"}, {"measurement": "Nausea Vomiting and Diarrhea: m, number of patients who experienced new event during interval", "setting": "LY15 mg-Group 2 (tirzepatide 2.5 mg × 4, 7.5 mg × 4, 15 mg × 4 once weekly), N = 28, T/Wk 1", "result": "m = 4;"}, {"measurement": "Nausea Vomiting and Diarrhea: m, number of patients who experienced new event during interval", "setting": "LY15 mg-Group 2 (tirzepatide 2.5 mg × 4, 7.5 mg × 4, 15 mg × 4 once weekly), N = 28, T/Wk 2", "result": "m = 2;"}, {"measurement": "Nausea Vomiting and Diarrhea: m, number of patients who experienced new event during interval", "setting": "LY15 mg-Group 2 (tirzepatide 2.5 mg × 4, 7.5 mg × 4, 15 mg × 4 once weekly), N = 28, T/Wk 3", "result": "m = 3;"}, {"measurement": "Nausea Vomiting and Diarrhea: m, number of patients who experienced new event during interval", "setting": "LY15 mg-Group 2 (tirzepatide 2.5 mg × 4, 7.5 mg × 4, 15 mg × 4 once weekly), N = 28, T/Wk 4", "result": "m = 6;"}, {"measurement": "Nausea Vomiting and Diarrhea: m, number of patients who experienced new event during interval", "setting": "LY15 mg-Group 2 (tirzepatide 2.5 mg × 4, 7.5 mg × 4, 15 mg × 4 once weekly), N = 28, T/Wk 5", "result": "m = 2;"}, {"measurement": "Nausea Vomiting and Diarrhea: m, number of patients who experienced new event during interval", "setting": "LY15 mg-Group 2 (tirzepatide 2.5 mg × 4, 7.5 mg × 4, 15 mg × 4 once weekly), N = 28, T/Wk 6", "result": "m = 3;"}, {"measurement": "Nausea Vomiting and Diarrhea: m, number of patients who experienced new event during interval", "setting": "LY15 mg-Group 2 (tirzepatide 2.5 mg × 4, 7.5 mg × 4, 15 mg × 4 once weekly), N = 28, T/Wk 7", "result": "m = 2;"}, {"measurement": "Nausea Vomiting and Diarrhea: m, number of patients who experienced new event during interval", "setting": "LY15 mg-Group 2 (tirzepatide 2.5 mg × 4, 7.5 mg × 4, 15 mg × 4 once weekly), N = 28, T/Wk 8", "result": "m = 5;"}, {"measurement": "Nausea Vomiting and Diarrhea: m, number of patients who experienced new event during interval", "setting": "LY15 mg-Group 2 (tirzepatide 2.5 mg × 4, 7.5 mg × 4, 15 mg × 4 once weekly), N = 28, T/Wk 9", "result": "m = 2;"}, {"measurement": "Nausea Vomiting and Diarrhea: m, number of patients who experienced new event during interval", "setting": "LY15 mg-Group 2 (tirzepatide 2.5 mg × 4, 7.5 mg × 4, 15 mg × 4 once weekly), N = 28, T/Wk 10", "result": "m = 0;"}, {"measurement": "Nausea Vomiting and Diarrhea: m, number of patients who experienced new event during interval", "setting": "LY15 mg-Group 2 (tirzepatide 2.5 mg × 4, 7.5 mg × 4, 15 mg × 4 once weekly), N = 28, T/Wk 11", "result": "m = 3;"}, {"measurement": "Nausea Vomiting and Diarrhea: m, number of patients who experienced new event during interval", "setting": "LY15 mg-Group 2 (tirzepatide 2.5 mg × 4, 7.5 mg × 4, 15 mg × 4 once weekly), N = 28, T/Wk 12", "result": "m = 0;"}]}]}
